From US20260166185A1 (Y MABS THERAPEUTICS, published 2026)
Blank lines part the entries; values can stand above or below the binder they belong to.

Columns and labels:
CD38 on Daudi cells = molecular target: T1, CD38 on Daudi cells (UniProt P28907 1-300, limits assumed); experiment: titration binding FACS on Daudi cells
T1 construct: whole, on cells
Description: Subsequently the EC50 of antibodies samples was determined by titration binding FACS on Daudi cells (for CD38 binding evaluation), on THP-1 cells (for CD33 binding evaluation), on A-431 cells (for EGFR binding evaluation), on MKN-45 cells (for CEACAMS binding evaluation) and on HEK293T (for CD276 binding evaluation). Jurkat E6-1 or HEK293T cell lines were used as negative control, as applicable.

bio-huCD38 [1] = molecular target: T2, bio-huCD38 (human (hu), UniProt P28907 43-300, biotinylated (bio-), site not stated); experiment: SPR, antibody captured on chip, antigen as analyte 200-6.25 nM
Description: (§1) SPR analysis was performed on a Biocore 8K+, using a CFJB0944 CM5 sensor chip for immobilization and a SPR running buffer 1×HBS-EP+pH 7.4 (Cytiva, cat no. BR100669) according to the manufacturer's instructions.
In the first part of this example the antibody was immobilized on the chip and the antigen dissolved in the SPR running buffer flowed over the chip.

bio-huCD38 [2] = molecular target: T2, bio-huCD38; experiment: SPR, antigen immobilized, antibody as analyte 50-3.1 nM
Description: as §1
(§2) In the second part of this example, antigen was immobilized on the chip and antibody dissolved in the SPR running buffer flowed over the chip.

bio-huCD38 [3] = molecular target: T2, bio-huCD38; experiment: SPR, antigen immobilized, antibody as analyte 25-1.6 nM
Description: as §1, §2

Bio-huHER2/Erb2 = Bio-huHER2/Erb2 (human (hu), UniProt P04626 23-652, biotinylated (bio-), site not stated); experiment: SPR (Biacore 8K+), immobilized antigen, 25.0-1.6 nM
bio-huCD38 [4] = molecular target: T2, bio-huCD38; experiment: as above
bio-huCD38 [5] = molecular target: T2, bio-huCD38; experiment: SPR, antigen immobilized, antibody as analyte 100-6.25 nM
Description: as §1, §2

bio-huCD38 [6] = molecular target: T2, bio-huCD38; experiment: SPR (Biacore 8K+), immobilized antigen

B1: CD38-DOTA(fab)-p53_C-Term-HC (bispecific antibody)
light: QAVVIQESALTTPPGETVTLTCGSSTGAVTASNYANWVQEKPDHLFTGLIGGHNNRPPGVPARFSGSLIGDKAALTIAGTQTEDEAIYFCALWYSDHWVIGGGTRLTVLGQPKANPTVTLFPPSSEELQANKATLVCLISDFYPGAVTVAWKADGSPVKAGVETTKPSKQSNNKYAASSYLSLTPEQWKSHRSYSCQVTHEGSTVEKTVAPTECS
heavy: HVKLQESGPGLVQPSQSLSLTCTVSGFSLTDYGVHWVRQSPGKGLEWLGVIWSGGGTAYNTALISRLNIYRDNSKNQVFLEMNSLQAEDTAMYYCARRGSYPYNYFDAWGRGTTVTVSSASTKGPSVFPLAPSSKSTSGGTAALGCLVKDYFPEPVTVSWNSGALTSGVHTFPAVLQSSGLYSLSSVVTVPSSSLGTQTYICNVNHKPSNTKVDKKVEPKSCGGGGSGGGGSGGGGSGGGGGSDVQLQESGGGLVQAGGSLRLSCTGSGRTFRNYPMAWFRQAPGKEREFVAGITWVGASTLYADFAKGRFTISRDNAKNTVYLQMNSLKPEDTAVYSCAAGRGIVAGRIPAEYADWGQGTQVTVSSGGGGSGGGGSKPLDGEYFTLQIRGRERFEMFRELNEALELKDAQAGKEPGGS
notes: VHH C-terminal of the Fab heavy chain, before p53; also called YM00014; molecule 13
- EC50 (CD38 on Daudi cells): 2.36 nM
- Kd (bio-huCD38 [1]): 1.33 nM
- koff (bio-huCD38 [1]): 7.59e-05 s⁻¹
- kon (bio-huCD38 [1]): 57000 M⁻¹ s⁻¹
- Kd (bio-huCD38 [2]): 0.163 nM
- koff (bio-huCD38 [2]): 1.52e-05 s⁻¹
- kon (bio-huCD38 [2]): 93300 M⁻¹ s⁻¹

B5: CD38-DOTA(Fab)-p53 (bispecific antibody)
light: DVQLQESGGGLVQAGGSLRLSCTGSGRTFRNYPMAWFRQAPGKEREFVAGITWVGASTLYADFAKGRFTISRDNAKNTVYLQMNSLKPEDTAVYSCAAGRGIVAGRIPAEYADWGQGTQVTVSSGGGGSGGGGSGGGGSGGGGGSQAVVIQESALTTPPGETVTLTCGSSTGAVTASNYANWVQEKPDHLFTGLIGGHNNRPPGVPARFSGSLIGDKAALTIAGTQTEDEAIYFCALWYSDHWVIGGGTRLTVLGQPKANPTVTLFPPSSEELQANKATLVCLISDFYPGAVTVAWKADGSPVKAGVETTKPSKQSNNKYAASSYLSLTPEQWKSHRSYSCQVTHEGSTVEKTVAPTECS
heavy: HVKLQESGPGLVQPSQSLSLTCTVSGFSLTDYGVHWVRQSPGKGLEWLGVIWSGGGTAYNTALISRLNIYRDNSKNQVFLEMNSLQAEDTAMYYCARRGSYPYNYFDAWGRGTTVTVSSASTKGPSVFPLAPSSKSTSGGTAALGCLVKDYFPEPVTVSWNSGALTSGVHTFPAVLQSSGLYSLSSVVTVPSSSLGTQTYICNVNHKPSNTKVDKKVEPKSCGGGGSGGGGSKPLDGEYFTLQIRGRERFEMFRELNEALELKDAQAGKEPGGSGGAPHHHHHH
notes: VHH-Fab fusion of two polypeptide chains; Tetramerizes through p53 depending on concentration; also called YM00016; molecule 1
- EC50 (CD38 on Daudi cells): 0.65 nM
- Kd (bio-huCD38 [4]): 0.0257 nM
- koff (bio-huCD38 [4]): 1.41e-05 s⁻¹
- kon (bio-huCD38 [4]): 550000 M⁻¹ s⁻¹

B6: CD38-DOTA(fab)-p53_C-Term-LC (bispecific antibody)
light: QAVVIQESALTTPPGETVTLTCGSSTGAVTASNYANWVQEKPDHLFTGLIGGHNNRPPGVPARFSGSLIGDKAALTIAGTQTEDEAIYFCALWYSDHWVIGGGTRLTVLGQPKANPTVTLFPPSSEELQANKATLVCLISDFYPGAVTVAWKADGSPVKAGVETTKPSKQSNNKYAASSYLSLTPEQWKSHRSYSCQVTHEGSTVEKTVAPTECSGGGGSGGGGSGGGGSGGGGGSDVQLQESGGGLVQAGGSLRLSCTGSGRTFRNYPMAWFRQAPGKEREFVAGITWVGASTLYADFAKGRFTISRDNAKNTVYLQMNSLKPEDTAVYSCAAGRGIVAGRIPAEYADWGQGTQVTVSS
heavy: HVKLQESGPGLVQPSQSLSLTCTVSGFSLTDYGVHWVRQSPGKGLEWLGVIWSGGGTAYNTALISRLNIYRDNSKNQVFLEMNSLQAEDTAMYYCARRGSYPYNYFDAWGRGTTVTVSSASTKGPSVFPLAPSSKSTSGGTAALGCLVKDYFPEPVTVSWNSGALTSGVHTFPAVLQSSGLYSLSSVVTVPSSSLGTQTYICNVNHKPSNTKVDKKVEPKSCGGGGSGGGGSKPLDGEYFTLQIRGRERFEMFRELNEALELKDAQAGKEPGGS
notes: VHH at the C-terminus of the light chain; also called YM00013; molecule 12
- Kd (bio-huCD38 [5]): 0.313 nM
- koff (bio-huCD38 [5]): 1.3e-05 s⁻¹
- kon (bio-huCD38 [5]): 41500 M⁻¹ s⁻¹
- EC50 (CD38 on Daudi cells): 3.75 nM
- Kd (bio-huCD38 [1]): 1.28 nM
- koff (bio-huCD38 [1]): 0.000103 s⁻¹
- kon (bio-huCD38 [1]): 80700 M⁻¹ s⁻¹

B7: CD38-DOTA(fab)-dp53 (bispecific antibody)
light: DVQLQESGGGLVQAGGSLRLSCTGSGRTFRNYPMAWFRQAPGKEREFVAGITWVGASTLYADFAKGRFTISRDNAKNTVYLQMNSLKPEDTAVYSCAAGRGIVAGRIPAEYADWGQGTQVTVSSGGGGSGGGGSGGGGSGGGGGSQAVVIQESALTTPPGETVTLTCGSSTGAVTASNYANWVQEKPDHLFTGLIGGHNNRPPGVPARFSGSLIGDKAALTIAGTQTEDEAIYFCALWYSDHWVIGGGTRLTVLGQPKANPTVTLFPPSSEELQANKATLVCLISDFYPGAVTVAWKADGSPVKAGVETTKPSKQSNNKYAASSYLSLTPEQWKSHRSYSCQVTHEGSTVEKTVAPTECS
heavy: HVKLQESGPGLVQPSQSLSLTCTVSGFSLTDYGVHWVRQSPGKGLEWLGVIWSGGGTAYNTALISRLNIYRDNSKNQVFLEMNSLQAEDTAMYYCARRGSYPYNYFDAWGRGTTVTVSSASTKGPSVFPLAPSSKSTSGGTAALGCLVKDYFPEPVTVSWNSGALTSGVHTFPAVLQSSGLYSLSSVVTVPSSSLGTQTYICNVNHKPSNTKVDKKVEPKSCGGHHHHHH
notes: No tetramerization domain; also called YM00017; molecule 15
- EC50 (CD38 on Daudi cells): 1.07 nM
- Kd (bio-huCD38 [6]): 0.316 nM
- koff (bio-huCD38 [6]): 0.000148 s⁻¹
- kon (bio-huCD38 [6]): 470000 M⁻¹ s⁻¹

Results, then the binder that gave them:

- EC50 (CD38 on Daudi cells): 0.59 nM
- Kd (bio-huCD38 [1]): 2.09 nM
- koff (bio-huCD38 [1]): 7.86e-05 s⁻¹
- kon (bio-huCD38 [1]): 37600 M⁻¹ s⁻¹
- Kd (bio-huCD38 [3]): 0.936 nM
- koff (bio-huCD38 [3]): 1.63e-05 s⁻¹
- kon (bio-huCD38 [3]): 17400 M⁻¹ s⁻¹
B2: CD38-DOTAM(Fab)-p53 (bispecific antibody)
light: DVQLQESGGGLVQAGGSLRLSCTGSGRTFRNYPMAWFRQAPGKEREFVAGITWVGASTLYADFAKGRFTISRDNAKNTVYLQMNSLKPEDTAVYSCAAGRGIVAGRIPAEYADWGQGTQVTVSSGGGGSGGGGSGGGGSGGGGGSDIQMTQSPSSLSASVGDRVTITCQSSHSVYSDNDLAWYQQKPGKAPKLLIYQASKLASGVPSRFSGSGSGTDFTLTISSLQPEDFATYYCLGGYDDESDTYGFGGGTKVEIKRTVAAPSVFIFPPSDEQLKSGTASVVCLLNNFYPREAKVQWKVDNALQSGNSQESVTEQDSKDSTYSLSSTLTLSKADYEKHKVYACEVTHQGLSSPVTKSFNRGEC
heavy: VTLKESGPVLVKPTETLTLTCTVSGFSLSTYSMSWIRQPPGKALEWLGFIGSRGDTYYASWAKGRLTISKDTSKSQVVLTMTNMDPVDTATYYCARERDPYGGGAYPPHLWGRGTLVTVSSASTKGPSVFPLAPSSKSTSGGTAALGCLVKDYFPEPVTVSWNSGALTSGVHTFPAVLQSSGLYSLSSVVTVPSSSLGTQTYICNVNHKPSNTKVDKKVEPKSCGGGGSGGGGSKPLDGEYFTLQIRGRERFEMFRELNEALELKDAQAGKEPGGS
notes: Tetramerizes through p53 depending on concentration; also called YM00006; molecule 5

- EC50 (CD38 on Daudi cells): 0.51 nM
- Kd (bio-huCD38 [1]): 12.7 nM
- koff (bio-huCD38 [1]): 0.000214 s⁻¹
- kon (bio-huCD38 [1]): 16800 M⁻¹ s⁻¹
- Kd (bio-huCD38 [3]): 0.132 nM
- koff (bio-huCD38 [3]): 0.000189 s⁻¹
- kon (bio-huCD38 [3]): 1.43e+06 M⁻¹ s⁻¹
B3: CD38-DOTAM(fab)-dp53 (bispecific antibody)
light: DVQLQESGGGLVQAGGSLRLSCTGSGRTFRNYPMAWFRQAPGKEREFVAGITWVGASTLYADFAKGRFTISRDNAKNTVYLQMNSLKPEDTAVYSCAAGRGIVAGRIPAEYADWGQGTQVTVSSGGGGSGGGGSGGGGSGGGGGSDIQMTQSPSSLSASVGDRVTITCQSSHSVYSDNDLAWYQQKPGKAPKLLIYQASKLASGVPSRFSGSGSGTDFTLTISSLQPEDFATYYCLGGYDDESDTYGFGGGTKVEIKRTVAAPSVFIFPPSDEQLKSGTASVVCLLNNFYPREAKVQWKVDNALQSGNSQESVTEQDSKDSTYSLSSTLTLSKADYEKHKVYACEVTHQGLSSPVTKSFNRGEC
heavy: VTLKESGPVLVKPTETLTLTCTVSGFSLSTYSMSWIRQPPGKALEWLGFIGSRGDTYYASWAKGRLTISKDTSKSQVVLTMTNMDPVDTATYYCARERDPYGGGAYPPHLWGRGTLVTVSSASTKGPSVFPLAPSSKSTSGGTAALGCLVKDYFPEPVTVSWNSGALTSGVHTFPAVLQSSGLYSLSSVVTVPSSSLGTQTYICNVNHKPSNTKVDKKVEPKSCG
notes: No tetramerization domain; also called YM00007; molecule 6

- Kd (Bio-huHER2/Erb2): 0.0588 nM
- koff (Bio-huHER2/Erb2): 2.25e-05 s⁻¹
- kon (Bio-huHER2/Erb2): 383000 M⁻¹ s⁻¹
B4: HER2-DOTA(Fab)-p53 (bispecific antibody)
light: QVQLQESGGGSVQAGGSLKLTCAASGYIFNSCGMGWYRQSPGRERELVSRISGDGDTWHKESVKGRFTISQDNVKKTLYLQMNSLKPEDTAVYFCAVCYNLETYWGQGTQVTVSSGGGSGGGSGGGSGGGGSQAVVTQESALTTSPGETVTLTCRSSTGAVTTSNYANWVQEKPDHLFTGLIGGNNNRPPGVPARFSGSLIGDKAALTIAGTQTEDEAIYFCALWYSNHWVFGGGTRLTVLGQPKSSPSVTLFPPSSEELETNKATLVCTITDFYPGVVTVDWKVDGTPVTQGMETTQPSKQSNNKYMASSYLTLTARAWERHSSYSCQVTHEGHTVEKSLSPAECS
heavy: HVKLQESGPGLVQPSQSLSLTCTVSGFSLTDYGVHWVRQSPGKGLEWLGVIWSGGGTAYNTALISRLNIYRDNSKNQVFLEMNSLQAEDTAMYYCARRGSYPYNYFDAWGRGTTVTVSSASTKGPSVFPLAPSSKSTSGGTAALGCLVKDYFPEPVTVSWNSGALTSGVHTFPAVLQSSGLYSLSSVVTVPSSSLGTQTYICNVNHKPSNTKVDKKVEPKSCGGGGSGGGGSKPLDGEYFTLQIRGRERFEMFRELNEALELKDAQAGKEPGGSGGAPHHHHHH
notes: Tetramerizes through p53 depending on concentration; also called YM00018; molecule 2
